Data: patent US20170022258A1, “PEPTIDES FOR USE IN THE TREATMENT OF IL-1 RELATED DISEASES AND CONDITIONS” (C4M PHARMACEUTICALS PTY LTD., priority 2011, published 2017)
Blank lines part the entries; values can stand above or below the molecule they belong to. Non-standard residues stand in square brackets, D forms with d. No end group written: not given here.

Columns and labels:
[1] = test system: IL-1α+IFN-γ induced IL-8 production by HT-29 cells; experiment: IL-1α+IFN-γ induced IL-8 production by HT-29 cells; type: cell-based, human; conditions: IL-1ra control
Description: (§1) Human colon epithelial cell lines HT-29 and Caco2 obtained from the European Collection of Animal Cell Cultures (ECACC) were used in cell cultures. Cells were routinely cultured at 37° C. in an atmosphere of 5% CO2 in 80 cm^2 tissue culture flasks in McCoy's and DMEM medium, respectively, supplemented with penicillin (10 u/ml), streptomycin (10 μg/ml), fungizone (0.5 μg/ml), and 10% (v/v) FCS (referred to as complete medium) until confluent.
(§2) Confluent monolayers were sub-cultured into 6-well plates for experimental protocols. Cells were grown in 6-well plates until confluent. Twenty-four hours prior to the experiment the confluent monolayers were washed and cultured in FCS-free McCoy's medium. Growth arrested cultures were then treated with fresh FCS-free medium and stimulated with vehicle controls or various doses of IL-1α added alone or in combination with other pro-inflammatory cytokines (TNF-α, IFN-γ) in the presence or absence of the peptide of sequence 4 or IL-1 ra, in a dose and time dependent manner.
(§3) Supernatants were collected, centrifuged to remove cellular debris and stored at −70° C. until assayed for extracellular inflammatory mediators. Total RNA for RT-PCR was extracted as described above. Cell counting and viability was routinely checked at the beginning and the end of the experiment by phase microscopy and by trypan blue exclusion using representative wells. Mycoplasma tests were performed during the experimental protocol. Production of soluble mediators was assessed by commercially available ELISA in supernatants, RT-PCR in total RNA extractants and nitric oxide, as described in Kolios, G, et al. (1995). Br J Pharmacol, 116, 2866-2872, the contents of which are incorporated herein by reference.
Stimulation of HT-29 cells with a combination of pro-inflammatory cytokines induces increased secretion of chemokines, including IL-8 (as described in Kolios, G, et al. (1999). Eur J Immunol, 29, 530-536 the contents of which are herein incorporated by reference). […]

[2] = test system: IL-1α+IFN-γ induced IL-17 production by HT-29 cells; experiment: IL-1α+IFN-γ induced IL-17 production by HT-29 cells; type: cell-based, human; conditions: IL-1ra control
Description: as §1, §2
(§4) Supernatants were collected, centrifuged to remove cellular debris and stored at −70° C. until assayed for extracellular inflammatory mediators. […] Production of soluble mediators was assessed by commercially available ELISA in supernatants, RT-PCR in total RNA extractants and nitric oxide, as described in Kolios, G, et al. (1995). […]

[3] = test system: IL-1 stimulation of IL-8 in human skin fibroblasts; experiment: Inhibition of IL-1 induced IL-8 in human fibroblasts; type: cell-based; conditions: n=3; maximal activation with IL-1 only 2530±13 pg/ml
Description: Inhibition of IL-1 induced IL-8 in human fibroblasts was determined using normal human dermal fibroblast cells cultured in DMEM with 10% fetal calf serum in 48-well plates.
Twenty-four hours before initiation of the experiment, the medium was changed to DMEM with 0.2% fetal calf serum. Each peptide was added to confluent cells, which were then pulsed for 30 min with rIL-I,B (which was obtained from R & D Systems) at 50 pg/ml. The cells were washed four times with PBS, and fresh DMEM/0.2% fetal calf serum was added to each well. After 5 hr of incubation, the culture media were collected and analyzed by ELISA for IL-8 (which was obtained from R & D Systems). Maximal activation, with IL-1 only, was 2530±13 pg/ml of IL-8. Nonspecific activation, determined in the presence of 1000-fold excess IL-1Ra, was 30±9 pg/ml of IL-8 (n=3).

[4] = test system: IL-1α-induced IL-8 production by Caco2 cells; experiment: IL-1α induced IL-8 production by Caco2 colonic adenocarcinoma cells; type: cell-based, human; conditions: IL-1ra 100 ng/ml, IL-1α alone 476.93±78.9, n=3
Description: as §1, §2, §4

[5] = test system: IL-1α-induced IL-8 production by HT-29 cells; experiment: IL-1α induced IL-8 production by HT-29 colonic epithelial cells; type: cell-based, human; conditions: IL-1ra 500 control
Description: as §1, §2, §3
HT 29 and Caco2 colonic epithelial cell lines were stimulated with 10 ng/ml of IL-la in the presence of 100 or 500 ng/ml of the peptide of sequence 4.

[6] = background statement; cited from earlier work
[7] = target: T1, IL-1 receptor (IL-1R) expressed on human monocytes (human), P14778; experiment: cell-based or functional assay
T1 chain: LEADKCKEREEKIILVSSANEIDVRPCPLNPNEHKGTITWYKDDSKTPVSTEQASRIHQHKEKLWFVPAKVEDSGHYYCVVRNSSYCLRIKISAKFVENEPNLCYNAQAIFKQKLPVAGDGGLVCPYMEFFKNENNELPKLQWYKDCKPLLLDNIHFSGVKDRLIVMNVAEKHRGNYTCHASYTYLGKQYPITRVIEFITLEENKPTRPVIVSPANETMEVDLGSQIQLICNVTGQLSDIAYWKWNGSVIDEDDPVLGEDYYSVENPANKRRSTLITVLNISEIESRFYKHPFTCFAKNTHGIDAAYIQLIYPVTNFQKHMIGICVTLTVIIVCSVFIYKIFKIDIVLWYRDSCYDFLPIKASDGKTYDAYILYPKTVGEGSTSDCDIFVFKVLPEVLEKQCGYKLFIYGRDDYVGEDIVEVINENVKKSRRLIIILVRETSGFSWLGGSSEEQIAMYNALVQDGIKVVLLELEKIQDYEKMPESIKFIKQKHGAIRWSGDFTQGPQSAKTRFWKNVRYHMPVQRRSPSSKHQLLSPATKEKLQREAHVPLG

[8] = target: T1, IL-1 receptor (IL-1R) expressed on …; experiment: radioligand competition, 40 pM 125I-IL-1α on confluent human monocytes
[9] = target: IL-1 receptor (IL-1R) expressed on human monocytes (human) (UniProt P14778); experiment: cell-based or functional assay
[10] = target: IL-1 receptor (IL-1R) expressed on human monocytes (human) (UniProt P14778); experiment: radioligand competition, 40 pM 125I-IL-1α on confluent human monocytes

Molecule: IL-1ra: IL-1R antagonist, member of the IL-1 cytokine family; competitively inhibits the activities of IL-1 [reference compound]
- IL-8 production in the absence of IL-1α [1]: did not result in production of IL-8
- IL-17 production without cytokine stimulation [2]: did not produce significant amounts of IL-17
- IL-8, nonspecific activation in the presence of 1000-fold excess IL-1Ra [3]: 30 ± 9 pg/mL
- IL-1α-induced IL-8 secretion [4]: 923.95±63.69 pg/ml per 106 cells
- IL-8 production in the absence of IL-1α [5]: did not result in production of IL-8

Molecule: recombinant IL-1Ra: recombinant full length IL-1Ra approved for methotrexate resistant rheumatoid arthritis (Amgen: Kineret-Anakinra)
- half-life [6]: approximately six

- IC50, in vitro inhibition of IL-1 stimulation of IL-8 in human skin fibroblasts (rIL-1β 50 pg/ml, IL-8 ELISA) [7]: 5.9 nM
- IC50 [8]: 6.9 nM
Molecule: Ac-[dL][dP][dL][dA][dY][dP][dQ][dW][dY]G[dP][dT][dW][dE][dF]

- IC50, in vitro inhibition of IL-1 stimulation of IL-8 in human skin fibroblasts (rIL-1β 50 pg/ml, IL-8 ELISA) [9]: 120 nM
- IC50 [10]: 22 nM
Molecule: Ac-[dL][dP][dL][dA][dY][dP][dQ][dW][dY][dY][dA][dN][dS][dE][dE][dW][dT][dF] [peptide of SEQ ID NO: 16 (Ac-…, D-amino acids)]

- IC50, in vitro inhibition of IL-1 stimulation of IL-8 in human skin fibroblasts (rIL-1β 50 pg/ml, IL-8 ELISA) [9]: 810 nM
- IC50 [10]: 190 nM
Molecule: Ac-[dL][dP][dL][dA][dY][dP][dQ][dW][dY]G[dP][dT][dW][dE][dF][dS][dS][dV][dN][dA][dT] (not fully specified (residue 10); printed as Ac-LPLAYPQWYGPTWEFSSVNAT) [peptide of SEQ ID NO: 18 (Ac-…, D-amino acids)]
